The values that follow come from article PMC9848473 (2023).

Some targets named below: DarB^E34R (Bacillus subtilis, UniProt O31698 1-147, E34R); DarB E74G/R75G (Bacillus subtilis, UniProt O31698 1-147, E74G | R75G); RelBs^NTD Y279A (Bacillus subtilis); RelBs^NTD K290G (Bacillus subtilis).
Test in all cases: ITC
A general note: ITC needs no label: the signal is the heat of the interaction.

B1: Bacillus subtilis Rel N-terminal domain region (RelBs^NTD; residues 1 to 373) (domain or fragment)
chain: not shown
The Kd is a measure of binding affinity in units of concentration. Low values mean tighter binding, high ones weaker binding. B1: the equilibrium dissociation constant (Kd) in the assay with DarB^E34R turned out to be 10.6 µM; with DarB E74G/R75G it was 8.9 µM.

B2: Bacillus subtilis DarB (natural protein)
chain: MISLQSDQLLEATVGQFMIEADKVAHVQVGNNLEHALLVLTKTGYTAIPVLDPSYRLHGLIGTNMIMNSIFGLERIEFEKLDQITVEEVMLTDIPRLHINDPIMKGFGMVINNGFVCVENDEQVFEGIFTRRVVLKELNKHIRSLNK
For B2, the Kd with RelBs^NTD Y279A came to 45.1 µM; with RelBs^NTD K290G it was 4 µM.
